Experiments:
AtBS = biological target: T1, AtBS (Arabidopsis thaliana, UniProt F4JFB8+Q9SG99); test: HPLC-DAD detection of benzaldehyde, Michaelis-Menten fit; assay type: biochemical; settings: 4 mM NADPH; 50 mM Bis-Tris pH 6.5; 28 °C; α:β 1:1
T1 construct: gene SDRD; CDS of both subunits from flower cDNA in pMAL-c5X (MBP-tagged), E. coli; amylose resin after 1:1 mixing; heterodimer
T1 sequence (F4JFB8 1-280): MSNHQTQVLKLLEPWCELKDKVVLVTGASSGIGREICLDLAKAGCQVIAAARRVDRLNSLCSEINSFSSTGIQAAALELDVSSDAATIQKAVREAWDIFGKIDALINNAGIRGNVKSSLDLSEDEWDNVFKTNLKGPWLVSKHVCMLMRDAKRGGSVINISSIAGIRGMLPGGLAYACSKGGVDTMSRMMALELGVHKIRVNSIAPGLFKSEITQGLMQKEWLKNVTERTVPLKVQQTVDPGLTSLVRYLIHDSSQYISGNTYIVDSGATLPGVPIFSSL
T1 sequence (Q9SG99 1-266): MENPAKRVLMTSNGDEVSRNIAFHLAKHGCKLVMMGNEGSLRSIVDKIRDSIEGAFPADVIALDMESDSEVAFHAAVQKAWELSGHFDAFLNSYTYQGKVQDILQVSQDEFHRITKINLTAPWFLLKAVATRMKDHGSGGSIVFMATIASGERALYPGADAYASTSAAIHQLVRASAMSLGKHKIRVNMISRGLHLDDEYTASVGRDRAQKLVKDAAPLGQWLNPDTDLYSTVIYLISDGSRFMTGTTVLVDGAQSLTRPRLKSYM
From the text: HPLC-DAD detection of benzaldehyde, Michaelis-Menten fit on AtBS

[1] = system: CC(C)(COP(=O)(O)OP(=O)(O)OC[C@H]1O[C@@H](n2cnc3c(N)ncnc32)[C@H](O)[C@@H]1OP(=O)(O)O)[C@@H](O)C(=O)NCCC(=O)NCCSC(=O)c1ccccc1; test: purified protein; settings: 4 mM NADPH, 50 mM Bis-Tris pH 6.5, 28 °C, α:β 1:1
From the text: HPLC-DAD detection of benzaldehyde, Michaelis-Menten fit on PdBS

[2] = biological target: purified recombinant Arabidopsis thaliana benzaldehyde synthase β subunit (AtBSβ) (Arabidopsis thaliana); test: SEC; purified recombinant proteins at ~1 mg/mL on Superdex 200 Increase 10/300 GL in phosphate-buffered saline
[3] = biological target: purified recombinant PhBSβ (from pMAL-c5X, MBP tag) (Petunia hybrida); test: as above
[4] = biological target: purified recombinant tomato (Solanum lycopersicum) benzaldehyde synthase α subunit (SlBSα) (Solanum lycopersicum (tomato))
[5] = biological target: purified recombinant Arabidopsis thaliana benzaldehyde synthase α subunit (AtBSα) (Arabidopsis thaliana)

In the case of `CC(C)(COP(=O)(O)OP(=O)(O)OC[C@H]1O[C@@H](n2cnc3c(N)ncnc32)[C@H](O)[C@@H]1OP(=O)(O)O)[C@@H](O)C(=O)NCCC(=O)NCCSC(=O)c1ccccc1` [benzoyl-CoA], the Km (AtBS) is reported as 243 ± 28.2 µM.
Molecule PdBS (Prunus dulcis) has a Km [1] of 629.4 ± 67.7 µM, a Vmax [1] of 2.12 µmol/min/mg and a kcat [1] of 5.26 ± 0.2 s⁻¹. The kcat/Km [1] was 8400 ± 1000 M⁻¹ s⁻¹.
Work on “purified recombinant Arabidopsis thaliana benzaldehyde synthase β subunit (AtBSβ) (natural protein)” yielded a stoichiometry N [2] of 4.
“purified recombinant PhBSβ (from pMAL-c5X, MBP tag) (natural protein)” was tested, and the stoichiometry N [3] was 4 and the apparent BS activity of the cross-species hybrid SlBSα-PhBSβ compared with SlBS (fold lower than SlBS) [4] was 6.5.
“purified recombinant almond (Prunus dulcis) benzaldehyde synthase β subunit (PdBSβ) (natural protein)” gave an apparent BS activity of the cross-species hybrid SlBSα-PdBSβ compared with SlBS (fold higher than SlBS) [4] of 2.7 and an apparent BS activity of the cross-species hybrid AtBSα-PdBSβ relative to AtBS (fold higher than AtBS) [5] of 7.8.
Work on “purified recombinant tomato (Solanum lycopersicum) benzaldehyde synthase β subunit (SlBSβ) (natural protein)” yielded an apparent BS activity of the cross-species hybrid AtBSα-SlBSβ relative to AtBS (fold higher than AtBS) [5] of 4.6.

Source: paper PMC8924275, “A peroxisomal heterodimeric enzyme is involved in benzaldehyde synthesis in plants” (Nature Communications, 2022)
